Data published in patent US20260176683A1 (RIJKSUNIVERSITEIT GRONINGEN, published 2026).

T1: C-reactive protein (UniProt P02741 19-224)
T1 construct: also called CRP
T1 sequence: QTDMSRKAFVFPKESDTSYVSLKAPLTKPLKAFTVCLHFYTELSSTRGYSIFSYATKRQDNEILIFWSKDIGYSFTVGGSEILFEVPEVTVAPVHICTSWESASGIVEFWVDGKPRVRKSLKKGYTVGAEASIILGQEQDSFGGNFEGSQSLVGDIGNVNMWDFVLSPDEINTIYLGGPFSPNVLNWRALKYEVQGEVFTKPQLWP

B1: YaxAΔ40BN-strepII-70aa-flex nanopore (other)
chain 1: […]
chain 2: MSYYHHHHHHDYDIPTTENLYFQGWSHPQFEKGSSGSTSNASAGTGSATGSNSTAGASSGNSAGTGTSSGSTGSANSSAGTGSGSATASAGNSGTSTAGNSTAEISTFPHSGLSYPDINFKIFSQGVKNISHLAQFKTTGVEVLQEKALRVSLYSQRLDVIVRESLSSLQVKLENTLALTYFTTLEEIDEALISQDIDEESKSEMRKERINIIKNLSNDITQLKQLFIEKTELLDKSSSDLHNVVIIEGTDKVLQAEQLRQKQLTEDIATKELERKEIEKKRDKIIEALDVIREHNLVDAFKDLIPTGENLSELDLAKPEIELLKQSLEITKKLLGQFSEGLKYIDLTDARKKLDNQIDTASTRLTELNRQLEQSEKLIAGVNAIIKIDQEKSAVVVEAEKLSRAWHIFIHEITALQGTSLNEVELSKPLIKQQIYLESLIKQLI
B2: His6-TEV-YaxA (full-length YaxA monomer) (other)
chain: MSYYHHHHHHDYDIPTTENLTRSSENLYFQSGGTQTQLAIDNVLASAESTIQLNELPKVVLDFITGEQTSVARSGGIFTKEDLINLKLYVRKGLSLPTRQDEVEAYLGYKKIDVAGLEPKDIKLLFDEIHNHALNWNDVEQAVLQQSLDLDIAAKNIISTGNEIINLINQMPITLRVKTLLGDITDKQLENITYESADHEVASALKDILDDMKGDINRHQTTTENVRKKVSDYRITLTGGELSSGDKVNGLEPQVKTKYDLMEKSNMRKSIKELDEKIKEKRQRIEQLKKDYDKFVGLSFTGAIGGIIAMAITGGIFGAKAENARKEKNALISEVAELESKVSSQRALQTALEALSLSFSDIGIRMVDAESALNHLDFMWLSVLNQITESQIQFAMINNALRLTSFVNKFQQVITPWQSVGDSARQLVDIFDEAIKEYKKVYG

Assays:
C-reactive protein = target: T1, C-reactive protein; experiment: single-nanopore electrophysiology, CRP added to cis
[1] = target: His6-TEV-YaxB (full-length YaxB monomer) (Yersinia enterocolitica); experiment: 1:1 mixing of monomers, SEC, insertion into lipid bilayers

Binder | binding result (C-reactive protein) | binding result [1]
B1 | no binding (tested: 20 nM CRP) | –
B2 | – | binds
